B1: SAT2 (parent)
chain: GYGIYYFIYSTWKGRTIYLEDIYV

Variants of: B1
Test: protein stability index of a GFP-peptide fusion (GPS, HEK-293T) (PSI 1-6); higher = more stable
Details: c terminus: a fixed tail appended
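Further: lentivirally expressed fusions sorted by FACS into six bins by GFP to DsRed ratio, PSI derived from sequencing read proportions per bin multiplied by bin number.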

Variant | protein stability index
GYGIYYFIYSTWKVRTIYLEDIYV [G14V] | 5.04
GYGIYYFIYSTWKNRTIYLEDIYV [G14N] | 2.71
GYGIYYFIYSTWKSRTIYLEDIYV [G14S] | 2.5
GYGIYYFIYSTWKCRTIYLEDIYV [G14C] | 5.03
GYGIYYFIYSTWKQRTIYLEDIYV [G14Q] | 3.24
GYGIYYFIYSTWKPRTIYLEDIYV [G14P] | 2.33
GYGIYYFIYSTWKHRTIYLEDIYV [G14H] | 4.09
GYGIYYFIYSTWKIRTIYLEDIYV [G14I] | 2.04
GYGIYYFIYSTWKYRTIYLEDIYV [G14Y] | 3.58
GYGIYYFIYSTWKLRTIYLEDIYV [G14L] | 2.47
GYGIYYFIYSTWKRRTIYLEDIYV [G14R] | 3.28
GYGIYYFIYSTWKTRTIYLEDIYV [G14T] | 2.34
GYGIYYFIYSTWKWRTIYLEDIYV [G14W] | 2.43
GYGIYYFIYSTWSGRTIYLEDIYV [K13S] | 2.39
GYGIYYFIYSTWIGRTIYLEDIYV [K13I] | 2.8
GYGIYYFIYSTWRGRTIYLEDIYV [K13R] | 3.04
GYGIYYFIYSTWHGRTIYLEDIYV [K13H] | 2.87
GYGIYYFIYSTWGGRTIYLEDIYV [K13G] | 2.94
GYGIYYFIYSTWPGRTIYLEDIYV [K13P] | 1.99
GYGIYYFIYSTWEGRTIYLEDIYV [K13E] | 3.58
GYGIYYFIYSTWTGRTIYLEDIYV [K13T] | 2.87
GYGIYYFIYSTWYGRTIYLEDIYV [K13Y] | 1.48
GYGIYYFIYSTWKGRTIFLEDIYV [Y18F] | 3.01
GYGIYYFIYSTWKGRTIMLEDIYV [Y18M] | 2.33

Variant | protein stability index
GYGIYYFIYSTWKGRTITLEDIYV [Y18T] | 2.92
GYGIYYFIYSTWKGRTICLEDIYV [Y18C] | 1.89
GYGIYYFIYSTWKGRTIVLEDIYV [Y18V] | 3.04
GYGIYYFIYSTWKGRTIILEDIYV [Y18I] | 1.92
GYGIYYFIYSTWKGRTIKLEDIYV [Y18K] | 1.88
GYGIYYFIYSTWKGRTISLEDIYV [Y18S] | 2.33
GYGIYYFIYSTWKGRTIALEDIYV [Y18A] | 1.71
GYGIYYFIYSTWKGRTIHLEDIYV [Y18H] | 2.59
GYGIYYFIYSTWKGRTIYLEKIYV [D21K] | 4.17
GYGIYYFIYSTWKGRTIYLEEIYV [D21E] | 2.34
GYGIYYFIYSTWKGRTIYLENIYV [D21N] | 2.74
GYGIYYFIYSTWKGRTIYLETIYV [D21T] | 1.75
GYGIYYFIYSTWKGRTIYLECIYV [D21C] | 2.34
GYGIYYFIYSTWKGRTIYLEAIYV [D21A] | 2.28
GYGIYYFIYSTWKGRTIYLEPIYV [D21P] | 2.44
GYGIYYFIYSTWKGRTIYLERIYV [D21R] | 1.47
GYGIYYFIYSTWKGRTIYLEHIYV [D21H] | 2.67
GYGIYYFIYSTWKGRTIYLEIIYV [D21I] | 3.08
GYGIYYFIYSTWKGRTIYLELIYV [D21L] | 2.9
GYGIYYFIYSTWKGRTIYLEMIYV [D21M] | 3.04
GYGIYYFIYSTWKGRMIYLEDIYV [T16M] | 3.12
GYGIYYFIYSTWKGREIYLEDIYV [T16E] | 2.53
GYGIYYFIYSTWKGRLIYLEDIYV [T16L] | 3.32
GYGIYYFIYSTWKGRGIYLEDIYV [T16G] | 3.31

Variant | protein stability index
GYGIYYFIYSTWKGRVIYLEDIYV [T16V] | 3.24
GYGIYYFIYSTWKGRNIYLEDIYV [T16N] | 1.86
GYGIYYFIYSTWKGRFIYLEDIYV [T16F] | 3.53
GYGIYYFIYSTWKGRSIYLEDIYV [T16S] | 3.8
GYGIYYFIYSTWKGRWIYLEDIYV [T16W] | 2.95
GYGIYYFIYSTWKGRAIYLEDIYV [T16A] | 3.27
GYGIYYFIYSTWKGRRIYLEDIYV [T16R] | 1.69
GYGIYYFIYSTWKGRCIYLEDIYV [T16C] | 2.83
GYGIYYFIYSTWKGRTIYLEDIYE [V24E] | 2.6
GYGIYYFIYSTWKGRTIYLEDIYM [V24M] | 1.63
GYGIYYFIYSTWKGRTIYLEDIYI [V24I] | 1.48
GYGIYYFIYSTWKGRTIYLEDIYC [V24C] | 3.63
GYGIYYFIYSTWKGRTIYLEDIYS [V24S] | 2.83
GYGIYYFIYSTWKGRTIYLEDIYP [V24P] | 2.3
GYGIYYFIYSTWKGRTIYLEDIYG [V24G] | 2.6
GYGIYYFIYSTWKGRTIYLEDIYF [V24F] | 2.91
GYGIYYFIYSTWKGRTIYLEDIYA [V24A] | 2.62
GYGIYYFIYSTWKGRTIYLEDIYY [V24Y] | 2.53
GYGIYYFIYSTWKGRTIYLEDIYR [V24R] | 2.39
GYGIYYFIYSTWKGRTIYLEDIYK [V24K] | 3.94
GYGIYYFIYSTPKGRTIYLEDIYV [W12P] | 2.36
GYGIYYFIYSTNKGRTIYLEDIYV [W12N] | 3.5
GYGIYYFIYSTVKGRTIYLEDIYV [W12V] | 3.31
GYGIYYFIYSTKKGRTIYLEDIYV [W12K] | 2.65

Variant | protein stability index
GYGIYYFIYSTMKGRTIYLEDIYV [W12M] | 4.12
GYGIYYFIYSTFKGRTIYLEDIYV [W12F] | 2.8
GYGIYYFIYSTSKGRTIYLEDIYV [W12S] | 4.37
GYGIYYFIYSTTKGRTIYLEDIYV [W12T] | 2.5
GYGIYYFIYSTWKGRTIYLEDEYV [I22E] | 2.92
GYGIYYFIYSTWKGRTIYLEDYYV [I22Y] | 2.09
GYGIYYFIYSTWKGRTIYLEDQYV [I22Q] | 1.86
GYGIYYFIYSTWKGRTIYLEDCYV [I22C] | 2.41
GYGIYYFIYSTWKGRTIYLEDSYV [I22S] | 3.3
GYGIYYFIYSTWKGRTIYLEDHYV [I22H] | 2.55
GYGIYYFIYSTWKGRTYYLEDIYV [I17Y] | 2.1
GYGIYYFIYSTWKGRTGYLEDIYV [I17G] | 2.82
GYGIYYFIYSTWKGRTWYLEDIYV [I17W] | 2.17
GYGIYYFIYSTWKGRTDYLEDIYV [I17D] | 3.35
GYGIYYFIYSTWKGRTEYLEDIYV [I17E] | 2.77
GYGIYYFIYSTWKGRTPYLEDIYV [I17P] | 2.91
GYGIYYFIYSTWKGRTAYLEDIYV [I17A] | 3.11
GYGIYYFIYSTWKGRTKYLEDIYV [I17K] | 3.66
GYGIYYFIYSTWKGRTVYLEDIYV [I17V] | 2.27
GYGIYYFIYSTWKGRTMYLEDIYV [I17M] | 1.75
GYGIYYFIYSTWKGRTFYLEDIYV [I17F] | 3.52
GYGIYYFIYSTWKGRTRYLEDIYV [I17R] | 1.72

From the supplement of paper PMC10567573
